Molecular target: T1, Recombinant APE1 (Homo sapiens, UniProt P27695)
T1 construct: purchased NEW ENGLAND BIOLABS
Assay: APE activity assay: APE cleavage of the substrate oligonucleotide, detected by Taq polymerase extension and real-time PCR
Type: biochemical
Details: well A04; Substrate DNA and Template DNA with APE
Procedure: Recombinant APE1 at 10,000 units/ml in 50% glycerol was purchased from NEW ENGLAND BIOLABS. One unit is defined as the amount of enzyme required to hydrolyze 20 pmol of a 34 bp oligonucleotide duplex containing a single AP site in a 10 ul reaction volume over one hour at 37° C. The reaction buffer consisted of 50 mM potassium acetate, 20 mM Tris-acetate, 10 mM magnesium acetate (pH 7.9) and 1 mM dithiothreitol.
All oligonucleotides, primers and probes were purchased from GENE LINK, INC. (Hawthorne, N.Y.). The two oligonucleotides that are specific to this technique, are designated the substrate and the template. The oligonucleotide with sequence 5′-GGGGTTTTGGGTTTTTTTAATTTTAGGTTGTGGTTGTGGTTGTCGGXGACGTGTTGGTTTTT/3ddC/3′ (SEQ. ID No. 1) serving as the substrate for APE contains the tetrahydrofuran, an abasic analog (X), and a 3′ dideoxy-C to prevent extension by DNA polymerase. […]
Real-time PCR was performed using a BIO-RAD LABORATORIES (Hercules, Calif.) ICYCLER using BIO-RAD LABORATORIES IQTM SUPERMIX. Cycle times were an initial step at 95° C. for 10 minutes followed by an amplification program of 50 cycles of 3 seconds at 95° C., 5 seconds at 61° C., and 20 seconds at 72° C. with fluorescence acquisition in relative florescent units at the end of each extension. […]

T1 sequence (P27695 whole entry): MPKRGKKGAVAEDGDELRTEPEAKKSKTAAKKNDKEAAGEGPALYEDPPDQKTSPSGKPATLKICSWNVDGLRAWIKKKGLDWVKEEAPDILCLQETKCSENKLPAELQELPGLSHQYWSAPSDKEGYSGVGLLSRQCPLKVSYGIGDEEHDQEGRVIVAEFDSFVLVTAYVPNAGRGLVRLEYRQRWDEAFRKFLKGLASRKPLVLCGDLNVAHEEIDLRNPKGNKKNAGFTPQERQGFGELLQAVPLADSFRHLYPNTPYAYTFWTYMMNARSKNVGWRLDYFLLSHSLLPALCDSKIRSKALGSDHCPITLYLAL

B1: 5′-GGGGTTTTGGGTTTTTTTAATTTTAGGTTGTGGTTGTGGTTGTCGGXGACGTGTTGGTTTTT/3ddC/3′ (nucleic acid)
chain: GGGGTTTTGGGTTTTTTTAATTTTAGGTTGTGGTTGTGGTTGTCGGGACGTGTTGGTTTTT
modifications: tetrahydrofuran abasic site; 3' dideoxy-C; SITE (46)...(47) Tetrahydrofuran is used to modify site 46 and 47. Serves as substrate for APE. Substrate is a commercial product. The 3′ end is modified by 3ddc/3′ to prevent extension by DNA polymerase.Chemically Synthesized
notes: substrate for APE; contains the tetrahydrofuran, an abasic analog (X), and a 3′ dideoxy-C to prevent extension by DNA polymerase
B1 was tested, and the “CT of real-time PCR amplification” value was 26.3.
